Reference: patent US20140377215A1

Experiments:
Assay in all cases: 1H-15N HSQC NMR titration of 15N-labeled CBD with mini-collagen
[1] = target: [PROXYL-(POG)5POA(POG)4]3
[2] = target: [PROXYL-(POG)4POA(POG)5]3
[3] = target: [PROXYL-(POG)3POA(POG)6]3
[4] = target: [PROXYL-(POG)6POA(POG)3]3

Measured: Kd

Chain of collagen-binding domain (CBD), s3b (Gly893-Lys1008) peptide derived from Clostridium histolyticum cl (Q9X721 1003-1118 limits assumed): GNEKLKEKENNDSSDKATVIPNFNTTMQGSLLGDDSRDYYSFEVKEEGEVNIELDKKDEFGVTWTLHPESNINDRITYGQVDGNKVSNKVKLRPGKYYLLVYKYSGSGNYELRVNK

collagen-binding domain (CBD), s3b (Gly893-Lys1008) peptide derived from Clostridium histolyticum cl (from UniProt Q9X721 1003-1118)
< 100 µM: all assays above
